{"source": "patent US12661385B2", "about": "“Modulation of mTORCI activity and autophagy via CIB2-RHEB interaction” (University of Maryland, Baltimore, priority 2018, dated 2026)", "molecules": {"B1": {"name": "CIB2: calcium and integrin binding protein 2, over-expressed in cells from plasmid constructs; SEQ ID NO:1 (human), SEQ ID NO:2 (mouse) (protein)", "chain": "MGNKQTIFTEEQLDNYQDCTFFNKKDILKLHARFYELAPNLVPMDYRKSPIVHVPMSLIIQMPELRENPFKERIVEAFSEDGEGNLTFNDFVDMFSVLCESAPRELKANYAFKIYDFNTDNFICKEDLEMTLARLTKSELEEDEVVLVCDKVIEEADLDGDGKLGFADFEDMIAKAPDFLSTFHIRI", "modifications": "left off: large carriers"}}, "key": {"RPE-J cells": {"tested_on": "RPE-J cells", "test": "Immunoblots for autophagy/lysosomal proteins in transfected RPE-J cells", "format": "cell-based, rat", "details": "RPE-J cells over-expressing CIB2 vs GFP", "source_text": "FIG. 12. CIB2 mutant mice have less autophagy/lysosomal proteins, and overexpression of CIB2. in vitro, is sufficient to boost levels of autophagy/lysosomal proteins and clearance of opsin. a. […] Pro-cathepsin D levels were quantified from non-saturated exposures. c. Representative immunoblots for indicated autophagy/lysosomal proteins from RPE-J cells transiently transfected with GFP or CIB2-IRES-GFP. Endogenous CIB2 is observable in long exposure immunoblot, while transiently overexpressed CIB2 is readily observable in short exposure immunoblot. d. Quantification for immunoblots shown in (c). n=5 (LAMP-1) or 4 (ATG5-ATG12) independent transfection experiments. e, Schematic of the pulse-chase phagocytosis assay (left panel)—also see Examples below. […]\nComplementary to the findings of Cib2 mutant mice, over-expressing CIB2 in RPE-J cells increased LAMP-1 and ATG5-ATG12 complex proteins levels (FIG. 12c-d). […] To test this idea, we assessed LC3-II flux. LC3-I is a cytosolic protein which when lipidated with a phosphatidylethanolamine adduct (LC3-II form) localizes to the growing auto/phagosome membrane, and thus can be used as a reliable readout for the dynamic autophagic process (Valapala et al., Autophagy 10, 480-496 (2014); Kim et al., Noncanonical Autophagy Promotes the Visual Cycle. Cell 154, 365-376 (2013); Klionsky et al., Autophagy 12, 1-222 (2016)). […]"}, "mTORC2": {"tested_on": "mTORC2", "test": "Phosphoprotein immunoblots of HEK293 cells overexpressing increasing amounts of CIB2, mTORC2 target", "format": "cell-based", "protocol": "(§1) FIG. 3. […] Note the stronger interaction between CIB2 and Rheb S20N variant as compared to Q64L variant (GDP vs GTP mimetic, respectively). c, CIB2 preferentially interacts with GDP-loaded Rheb is further confirmed by co-IP experiments of HA-GST-Rheb immobilized on […] and loaded with either GDP or GTPγS, followed by incubation with tdTomato-CIB2 lysate. d, Proposed model of CIB2 function in retinal sensory cells. […] Loss of CIB2 results in reduced autophagy and exacerbated mTORC1 signaling, thus leading to RPE pathology and secondary PR dysfunction. e, f Immunoblots from RPE/choroid lysates from dry AMD or control age-matched donors indicate reduced CIB2 expression, overactive mTORC1 and reduced autophagy, quantified in panel f. Unpaired two-tailed 1 test was used to determine statistical significance. p value of <0.05 (*), <0.01 (**), and <0.001 (***). Please note that one control sample (ψ) is outliner and is highly variant from the rest, Re-quantification, omitting the highly variant control sample, is shown in FIG. 15. g.\nmTORC1 integrates various metabolic and amino acid signals through its nutrient-sensing arm and growth signals, which converge on the small GTPase Rheb, via the TSC complex (Wolfson et al., Cell Metabolism 26, 301-309 (2017)). We first tested if CIB2 is a specific negative regulator of mTORC1 and/or mTORC2. […]"}, "mTORC1": {"tested_on": "mTORC1", "test": "Phosphoprotein immunoblots of HEK293 cells overexpressing increasing amounts of CIB2, mTORC1 targets", "format": "cell-based", "protocol": "as §1\nmTORC1 integrates various metabolic and amino acid signals through its nutrient-sensing arm and growth signals, which converge on the small GTPase Rheb, via the TSC complex (Wolfson et al., Cell Metabolism 26, 301-309 (2017)). We first tested if CIB2 is a specific negative regulator of mTORC1 and/or mTORC2. We used HEK293 cells, because the mTORC1 signaling pathway is well-established in this cell line, and to expand CIB2 functions beyond the RPE.\n80% confluent HEK293 cells in 10-cm dishes were transfected for co-IP experiments with 10 μg of indicated plasmid/s using the polyethylenimine (PEI) method (3:1::PEI:DNA). 2 plates per condition were used. 36 hr later the plates were chilled on ice, washed once with ice-cold PBS, and cells collected in ice-cold PBS and centrifuged for 2 min at 1500 RPM at 4° C. Cell pellet was then lysed in IP buffer (0.3% CHAPS, 40 mM HEPES, 2.5 mM MgCl2, 1× Protease inhibitors, 1 mM Na orthovanadate, 10 mM Na glycerophosphate, 10 mM NaF) on ice for 20 min, followed by centrifuging at full speed for 20 min at 4° C. […]"}}, "data": [{"molecule": "B1", "values": [{"measurement": "ATG5-ATG12 complex protein levels", "setting": "RPE-J cells", "value": "increased"}, {"measurement": "LAMP-1 protein levels", "setting": "RPE-J cells", "value": "increased"}, {"measurement": "mTORC2-mediated phosphorylation of AKT", "setting": "mTORC2", "value": "no changes"}, {"measurement": "Phosphorylation of 4E-BP1", "setting": "mTORC1", "value": "decreasing phosphorylation"}, {"measurement": "Phosphorylation of S6K1", "setting": "mTORC1", "value": "decreasing phosphorylation"}, {"measurement": "Phosphorylation of ULK1", "setting": "mTORC1", "value": "decreasing phosphorylation"}]}]}
